Assays:
Experiment in all cases: SPR
[1] = biological target: Ab62-D100dG (human)
[2] = biological target: Ab77 with a T28I mutation (human)
[3] = biological target: Ab62-S74P (human)
[4] = biological target: Other beneficial substitutions in Ab77 and Ab31

fold improvement of affinity over the parent Ab62 [1]: 3 fold
fold improvement of affinity over the parent Ab77 [2]: 3 fold
fold improvement of affinity over the parent Ab62 [3]: 3 fold
fold improvement of affinity over the parent antibody [4]: < 2 fold
B1: Recombinant dimeric HARS (aa1-506) (enzyme)
chain: MAERAALEELVKLQGERVRGLKQQKASAELIEEEVAKLLKLKAQLGPDESKQKFVLKTPKGTRDYSPRQMAVREKVFDVIIRCFKRHGAEVIDTPVFELKETLMGKYGEDSKLIYDLKDQGGELLSLRYDLTVPFARYLAMNKLTNIKRYHIAKVYRRDNPAMTRGRYREFYQCDFDIAGNFDPMIPDAECLKIMCEILSSLQIGDFLVKVNDRRILDGMFAICGVSDSKFRTICSSVDKLDKVSWEEVKNEMVGEKGLAPEVADRIGDYVQQHGGVSLVEQLLQDPKLSQNKQALEGLGDLKLLFEYLTLFGIDDKISFDLSLARGLDYYTGVIYEAVLLQTPAQAGEEPLGVGSVAAGGRYDGLVGMFDPKGRKVPCVGLSIGVERIFSIVEQRLEALEEKIRTTETQVLVASAQKKLLEERLKLVSELWDAGIKAELLYKKNPKLLNQLQYCEEAGIPLVAIIGEQELKDGVIKLRSVTSREEVDVRREDLVEEIKRRTGQPL
